{"source": "patent US20250188131A1", "about": "(ICOSAVAX, published 2025)"}
{"target": "T1, I53-50B.4PosT1", "T1 construct": "also called second component; CompB", "assay": "in vitro assembly with I53-50B, DLS", "description": "Selected constructs were incubated with a second component, I53-50B, to form nanostructures. Dynamic Light Scattering (DLS) and negative-stain electron microscopy (nsEM) confirm assembly as nanostructure. A representative electron micrograph is shown in FIG. 5 (RSV/B.195, having the DS-Cav).\nAssembly: Molar concentrations for RSV/B or RSV/A trimers fused to I53-50AΔcys and I53-50B (second component, using the sequence of I53-50B.4PosT1, SEQ ID NO:46) were determined using UV-Vis spectroscopy. Absorbance values at 280 nm were collected and divided by calculated molar extinction coefficients (ExPASy). The assembly reaction to produce RSVB antigen-bearing nanostructures was performed in vitro with the addition of components as follows: RSV F trimers fused to I53-50AΔcys were added to PCR tubes in 1.5× molar excess of I53-50B, then assembly buffer (20 mM Tris pH 7.4, 250 mM NaCl, 4% sucrose) was added to the sample in PCR tubes, and finally I53-50B was added to the reaction to bring the assemblies to a final concentration of 7.5 μM and a final volume of 47.5 μL. The reaction was incubated at ambient temperature for ˜30 minutes with gentle rocking prior to subsequent measurement by dynamic light scattering (DLS). All constructs were assembly competent under the conditions tested. Prior to nsEM analysis or immunogenicity studies, assembled nanostructures were further purified by size exclusion chromatography over a Superose 6 Increase 10/300 GL column into 20 mM Tris pH 7.4, 250 mM NaCl, 4% sucrose."}
{"binder": "RSV/B.171 (other) QNITEEFYQSTCSAVSRGYLSALRTGWYTSVITIELSNIKETKCNGTDTKVKLIKQELDKYKNAVTELQLLMQNTPAVNNRARREAPQYMNYTINTTKNLNVSISKKRKRRFLGFLLGVGSAIASGIAVCKVLHLEGEVNKIKNALQLTNKAVVSLSNGVSVLTFRVLDLKNYINNQLLPMLNRQSCRISNIETVIEFQQKNSRLLEITREFSVNAGVTTPLSTYMLTNSELLSLINDMPITNDQKKLMSSNVQIVRQQSYSIMCIIKEEVLAYVVQLPIYGVIDTPCWKLHTSPLCTTNIKEGSNICLTRTDRGWYCDNAGSVSFFPQADTCKVQSNRVFCDTMNSLTLPSEVSLCNTDIFNSKYDCKIMTSKDDISSSVITSLGAIVSCYGKTKCTASNKNRGIIKTFSNGCDYVSNKGVDTVSVGNTLYYVNKLEGKNLYVKGEPIINYYDPLVFPSDRFAASISQVNEAINQSREIIRAINIVRKIASEKGSGGSGSGSGGSEKAAKAEEAARKMEELFKKHKIVAVLRANSVEEAIEKAVAVFAGGVHLIEITFTVPDADTVIKALSVLKEKGAIIGAGTVTSVEQARKAVESGAEFIVSPHLDEEISQFAKEKGVFYMPGVMTPTELVKAMKLGHTILKLFPGEVVGPQFVKAMKGPFPNVKFVPTGGVNLDNVAEWFKAGVLAVGVGSALVKGTPDEVREKAKAFVEKIRGATELEHHHHHH", "binding result": "binds"}
{"binder": "RSV/B.099 (other) QNITEEFYQSTCSAVSRGYLSALRTGWYTSVITIELSNIKEVKCNGTDTKVKLIKQELDKYKNAVTELQLLMQNTPAVNNRARREAPQYMNYTINTTKNLNVSISKKRKRRFLGFLLGVGSAIASGIAVCKVLHLEGEVNKIKNALQLTNKAVVSLSNGVSVLTFRVLDLKNYINNQLLPMLNRQSCRISNIETVIEFQQKNSRLLEITREFSVNAGVTTPLSTYMLTNSELLSLINDMPITNDQKKLMSSNVQIVRQQSYSIMCIIKEEVLAYVVQLPIYGVIDTPCWKLHTSPLCTTNIKEGSNICLTRTDRGWYCDNAGSVSFFPQADTCKVQSNRVFCDTMNSLTLPSEVSLCNTDIFNSKYDCKIMTSKTDISSSVITSLGAIVSCYGKTKCTASNKNRGIIKTFSNGCDYVSNKGVDTVSVGNTLYYVNKLEGKNLYVKGEPIINYYDPLVFPSDRFDASISQVNEAINQSLAFIRRSDELLGSGGSGSGSGGSEKAAKAEEAARKMEELFKKHKIVAVLRANSVEEAIEKAVAVFAGGVHLIEITFTVPDADTVIKALSVLKEKGAIIGAGTVTSVEQARKAVESGAEFIVSPHLDEEISQFAKEKGVFYMPGVMTPTELVKAMKLGHTILKLFPGEVVGPQFVKAMKGPFPNVKFVPTGGVNLDNVAEWFKAGVLAVGVGSALVKGTPDEVREKAKAFVEKIRGATELEHHHHHH", "binding result": "binds"}
{"binder": "RSV/B.002 (other, DS-Cav1 control; also called DS-Cav1 RSV/B.002) QNITEEFYQSTCSAVSRGYLSALRTGWYTSVITIELSNIKETKCNGTDTKVKLIKQELDKYKNAVTELQLLMQNTPAVNNRARREAPQYMNYTINTTKNLNVSISKKRKRRFLGFLLGVGSAIASGIAVCKVLHLEGEVNKIKNALQLTNKAVVSLSNGVSVLTFRVLDLKNYINNQLLPMLNRQSCRISNIETVIEFQQKNSRLLEITREFSVNAGVTTPLSTYMLTNSELLSLINDMPITNDQKKLMSSNVQIVRQQSYSIMCIIKEEVLAYVVQLPIYGVIDTPCWKLHTSPLCTTNIKEGSNICLTRTDRGWYCDNAGSVSFFPQADTCKVQSNRVFCDTMNSLTLPSEVSLCNTDIFNSKYDCKIMTSKTDISSSVITSLGAIVSCYGKTKCTASNKNRGIIKTFSNGCDYVSNKGVDTVSVGNTLYYVNKLEGKNLYVKGEPIINYYDPLVFPSDEFDASISQVNEKINQSLAFIRRSDELLGSGGSGSGSGGSEKAAKAEEAARKMEELFKKHKIVAVLRANSVEEAIEKAVAVFAGGVHLIEITFTVPDADTVIKALSVLKEKGAIIGAGTVTSVEQARKAVESGAEFIVSPHLDEEISQFAKEKGVFYMPGVMTPTELVKAMKLGHTILKLFPGEVVGPQFVKAMKGPFPNVKFVPTGGVNLDNVAEWFKAGVLAVGVGSALVKGTPDEVREKAKAFVEKIRGATELEHHHHHH", "binding result": "binds"}
{"binder": "RSV/B.081 (other) QNITEEFYQSTCSAVSRGYLSALRTGWYTSVITIELSNIKETKCNGTDTKVKLIKQELDKYKNAVTELQLLMQNTPAVNNRARREAPQYMNYTINTTKNLNVSISKKRKRRFLGFLLGVGSAIASGIAVCKVLHLEGEVNKIKNALQLTNKAVVSLSNGVSVLTFRVLDLKNYINNQLLPMLNRQSCRISNIETVIEFQQKNSRLLEITREFSVNAGVTTPLSTYMLTNSELLSLINDMPITNDQKKLMSSNVQIVRQQSYSIMCIIKEEVLAYVVQLPIYGVIDTPCWKLHTSPLCTTNIKEGSNICLTRTDRGWYCDNAGSVSFFPQADTCKVQSNRVFCDTMNSLTLPSEVSLCNTDIFNSKYDCKIMTSKDDISSSVITSLGAIVSCYGKTKCTASNKNRGIIKTFSNGCDYVSNKGVDTVSVGNTLYYVNKLEGKNLYVKGEPIINYYDPLVFPSARFAASISQVNEAINQSLAFIRRSDELLGSGGSGSGSGGSEKAAKAEEAARKMEELFKKHKIVAVLRANSVEEAIEKAVAVFAGGVHLIEITFTVPDADTVIKALSVLKEKGAIIGAGTVTSVEQARKAVESGAEFIVSPHLDEEISQFAKEKGVFYMPGVMTPTELVKAMKLGHTILKLFPGEVVGPQFVKAMKGPFPNVKFVPTGGVNLDNVAEWFKAGVLAVGVGSALVKGTPDEVREKAKAFVEKIRGATELEHHHHHH", "binding result": "binds"}
{"binder": "RSV/B.123 (other) QNITEEFYQSTCSAVSRGYLSALRTGWYTSVITIELSNIKEVKCNGTDTKVKLIKQELDKYKNAVTELQLLMQNTPAVNNRARREAPQYMNYTINTTKNLNVSISKKRKRRFLGFLLGVGSAIASGIAVCKVLHLEGEVNKIKNALQLTNKAVVSLSNGVSVLTFRVLDLKNYINNQLLPMLNRQSCRISNIETVIEFQQKNSRLLEITREFSVNAGVTTPLSTYMLTNSELLSLINDMPITNDQKKLMSSNVQIVRQQSYSIMCIIKEEVLAYVVQLPIYGVIDTPCWKLHTSPLCTTNIKEGSNICLTRTDRGWYCDNAGSVSFFPQADTCKVQSNRVFCDTMNSLTLPSEVSLCNTDIFNSKYDCKIMTSKDDISSSVITSLGAIVSCYGKTKCTASNKNRGIIKTFSNGCDYVSNKGVDTVSVGNTLYYVNKLEGKNLYVKGEPIINYYDPLVFPSDRFAASISQVNEAINQSLAFIRRSDELLGSGGSGSGSGGSEKAAKAEEAARKMEELFKKHKIVAVLRANSVEEAIEKAVAVFAGGVHLIEITFTVPDADTVIKALSVLKEKGAIIGAGTVTSVEQARKAVESGAEFIVSPHLDEEISQFAKEKGVFYMPGVMTPTELVKAMKLGHTILKLFPGEVVGPQFVKAMKGPFPNVKFVPTGGVNLDNVAEWFKAGVLAVGVGSALVKGTPDEVREKAKAFVEKIRGATELEHHHHHH", "binding result": "binds"}
{"binder": "RSV/B.100 (other) QNITEEFYQSTCSAVSRGYLSALRTGWYTSVITIELSNIKEVKCNGTDTKVKLIKQELDKYKNAVTELQLLMQNTPAVNNRARREAPQYMNYTINTTKNLNVSISKKRKRRFLGFLLGVGSAIASGIAVCKVLHLEGEVNKIKNALQLTNKAVVSLSNGVSVLTFRVLDLKNYINNQLLPMLNRQSCRISNIETVIEFQQKNSRLLEITREFSVNAGVTTPLSPYMLTNSELLSLINDMPITNDQKKLMSSNVQIVRQQSYSIMCIIKEEVLAYVVQLPIYGVIDTPCWKLHTSPLCTTNIKEGSNICLTRTDRGWYCDNAGSVSFFPQADTCKVQSNRVFCDTMNSLTLPSEVSLCNTDIFNSKYDCKIMTSKTDISSSVITSLGAIVSCYGKTKCTASNKNRGIIKTFSNGCDYVSNKGVDTVSVGNTLYYVNKLEGKNLYVKGEPIINYYDPLVFPSDRFDASISQVNEAINQSLAFIRRSDELLGSGGSGSGSGGSEKAAKAEEAARKMEELFKKHKIVAVLRANSVEEAIEKAVAVFAGGVHLIEITFTVPDADTVIKALSVLKEKGAIIGAGTVTSVEQARKAVESGAEFIVSPHLDEEISQFAKEKGVFYMPGVMTPTELVKAMKLGHTILKLFPGEVVGPQFVKAMKGPFPNVKFVPTGGVNLDNVAEWFKAGVLAVGVGSALVKGTPDEVREKAKAFVEKIRGATELEHHHHHH", "binding result": "binds"}
{"binder": "RSV/B.093 (other) QNITEEFYQSTCSAVSRGYLSALRTGWYTSVITIELSNIKETKCNGTDTKVKLIKQELDKYKNAVTELQLLMQNTPAVNNRARREAPQYMNYTINTTKNLNVSISKKRKRRFLGFLLGVGSAIASGIAVCKVLHLEGEVNKIKNALQLTNKAVVSLSNGVSVLTFRVLDLKNYINNQLLPMLNRQSCRISNIETVIEFQQKNSRLLEITREFSVNAGVTTPLSTYMLTNSELLSLINDMPITNDQKKLMSSNVQIVRQQSYSIMCIIKEEVLAYVVQLPIYGVIDTPCWKLHTSPLCTTNIKEGSNICLTRTDRGWYCDNAGSVSFFPQADTCKVQSNRVFCDTMNSLTLPSEVSLCNTDIFNSKYDCKIMTSKDDISSSVITSLGAIVSCYGKTKCTASNKNRGIIKTFSNGCDYVSNKGVDTVSVGNTLYYVNKLEGKNLYVKGEPIINYYDPLVFPSARWAASISQVNEAINQSLAFIRRSDELLGSGGSGSGSGGSEKAAKAEEAARKMEELFKKHKIVAVLRANSVEEAIEKAVAVFAGGVHLIEITFTVPDADTVIKALSVLKEKGAIIGAGTVTSVEQARKAVESGAEFIVSPHLDEEISQFAKEKGVFYMPGVMTPTELVKAMKLGHTILKLFPGEVVGPQFVKAMKGPFPNVKFVPTGGVNLDNVAEWFKAGVLAVGVGSALVKGTPDEVREKAKAFVEKIRGATELEHHHHHH", "binding result": "binds"}
